{
  "source": "a protein production outcome set (Wang et al. 2014)",
  "data": [
    {"test": "label from the status in PepcDB records", "values": [
      {"sequence": "MRAVLTWRDKAEHCINDIAFKPDGTQLILAAGSRLLVYDTSDGTLLQPLKGHKDTVYCVAYAKDGLWSPEQKSVSKHKSSSKIICCSWTNDGQYLALGMFNGIISIRNKNGEEKVKIERPGGSLSPIWSICWNPSREERNDILAVADWGQKVSFYQLSGKQIGKDRALNFDPCCISYFTKGEYILLGGSDKQVSLFTKDGVRLGTVGEQNSWVWTCQAKPDSNYVVVGCQDGTISFYQLIFSTVHGLYKDRYAYRDSMTDVIVQHLITEQKVRIKCKELVKKIAIYRNRLAIQLPEKILIYELYSEDLSDMHYRVKEKIIKKFECNLLVVCANHIILCQEKRLQCLSFSGVKEREWQMESLIRYIKVIGGPPGREGLLVGLKNGQILKIFVDNLFAIVLLKQATAVRCLDMSASRKKLAVVDENDTCLVYDIDTKELLFQEPNANSVAWNTQCEDMLCFSGGGYLNIKASTFPVHRQKLQGFVVGYNGSKIFCLHVFSISAVEVPQSAPMYQYLDRKLFKEAYQIACLGVTDTDWRELAMEALEGLDFETAKKAFIRVQDLRYLELISSIEERKKRGETNNDLFLADVFSYQGKFHEAAKLYKRSGHENLALEMYTDLCMFEYAKDFLGSGDPKETKMLITKQADWARNIKEPKAAVEMYISAGEHVKAIEICGDHGWVDMLIDIARKLDKAEREPLLLCATYLKKLDSPGYAAETYLKMGDLKSLVQLHVETQRWDEAFALGEKHPEFKDDIYMPYAQWLAENDRFEEAQKAFHKAGRQREAVQVLEQLTNNAVAESRFNDAAYYYWMLSMQCLDIAQADPAQKDTMLGKFYHFQRLAELYHGYHAIHRHTEDPFSVHRPETLFNISRFLLHSLPKDTPSGISKVKILFTLAKQSKALGAYRLARHAYDKLRGLYIPARFQKSIELGTLTIRAKPFHDSEELVPLCYRCSTNNPLLNNLGNVCINCRQPFIFSASSYDVLHLVEFYLEEGITDEEAISLIDLEVLRPKRDDRQLEIANNSSQILRLVETKDSIGDEDPFTAKLSFEQGGSEFVPVVVSRLVLRSMSRRDVLIKRWPPPLRWQYFRSLLPDASITMCPSCFQMFHSEDYELLVLQHGCCPYCRRCKDDPGP", "protein production": "failed"},
      {"sequence": "MRCLRHARRQSQGVRGGRGMARADRGDGDGDAEAEDGRHSTASDARLTQLLRTDTATAYPALRELRTRHRPAVLGYARLCTVDDAAARRLTAQAFALAARDTARGSDPRGPWRHQLLLLAGRVAASWAADERAARLDPDLLAHLGAAGSRAQVPPLLAAFQSLPSRVQGVVWYAVVEGEPDDRTADFVGLTREDVTYGTEPAFQSLRQSCLTTRLAASDDPRCQDFRRLIEESVRPDNPRYSADLHAHMVHCVYCATAYDELSALRDDPRTALAAGLLAWGGAAYVTGGAVTRRAVAGGPGPSGPGPGDPGPGPAPGWWPSRRFVLASTALGVALIPFLAYLLVSGGPEPERAANAVATPSRPPAVTVTATVSATPSPSPSHTAGKSPKPSRSPSASKTTRPPSPKPSPKPPAPHPPNGSFAQVVNADSGLCLDIRDGVMDLGTDVVTAPCTSSRTQRWRVDTARGVLQSSEDPDFCLDSRGSTDRGVGIWECGAVYGRNGRNLRFTVDAQGVIRPAVAPDHAVTPYGDALFLVPAEGRAAQRWRAGAA", "protein production": "failed"},
      {"sequence": "MRCRFPYDGKQRIILEEGYPVYECNKFCGCSRTCQNRVLQNGIRAKLEVFRTESKGWGLRACEHILRGTFVCEYIGEVLDQQEANKRRNQYGNGDCSYILDIDANINDIGRLMEEELDYAIDATTHGNISRFINHSCSPNLVNHQVIVESMESPLAHIGLYASMDIAAGEEITRDYGRRPVPSEQENEHPCHCKATNCRGLLS", "protein production": "failed"},
      {"sequence": "MRDMEFIEWYPRGYGVAFKVKRKILEEQSEYQKIEVYETEGFGKLLAIDGTVQLVTEGEKSYHEPLVHPAMLAHPNPRRVLIIGGGDGGAIREVLKHEEVEEVIMVEIDKKVIEISAKYIGIDGGILEKMLSDKHEKGKLIIGDGVKFIEENSGFDVIIVDSTDPVGPAEMLFSEEFYKNAYRALNDPGIYVTQAGSVYLFTDEFLTAYRKMRKVFDKVYYYSFPVIGYASPWAFLVGVKGSIDFMKVDAEKGKKLGLEYYDPDKHETLFQMPRYIVQML", "protein production": "not failed"},
      {"sequence": "MRDPVSRLPNREQFQSDLYDLADENPGERRVLVLVDAVDMTVAHELTLAMGLAPFETIVRFLAQQLLAYLGRHVRVYHVSVKRFGFLLPAAPGIERFLESLVRRLRRQPPGLELPMIPGVCAGTVEFSTDRDAVPDVLRKAMFALELATLNRSTWAPYDVVRLEHHHHHH", "protein production": "failed"},
      {"sequence": "MRDTGTSESNRSGDVVLGDDWVAPHSTVSKELRVKRARRSLFSLRGSPLTRKIITFNLIALIILVAGILYLNDARNGLVVQRAGALVGETQLVADVFEAQITGSAPVNLATGDGVDVDATLEDLSLRRGVEVFVFDTARNMVGQTKGTHVNPRLQALFEDKTGSTIITDALSGLWRAVSSIFANAPKSSAPALEQQIASLLPEALAGETRVETVLNTAGGTVIAAATPILQAGTPIGAVAMASPAGEIDALARRDRERVLQMFVVALLVSVGLSLVLASTIANPLADLAEAAELGRDRNSRRMNPGRIRIPDLSARPDEIGRLSRALRGMVSALYNRIEGNEQFAADVAHEIKNPLASLQSAVGTLRMVRREDQRDKLLSVIEHDVRRLDRLVSDISNASRLDAELVKEEEQSFNLLTMLDNLNQYLGEDARSKGIDYITDMPPDPIMIQGLEARLAQVFVNLITNAISFCEDGDAIRVWTRRRANRVLIVVEDTGPGIPDEALAKIFKRFYSQRPEEHFGNNSGLGLAISKQIVEAHGGVIWAENIRPTEADVTSDPLGARFVVGLPI", "protein production": "not failed"},
      {"sequence": "MRDVIIALLPATIFGIINFEINAMILILTCVVSCVLFEWLYQKMMNRKVTIYDLSAVVTGLLLALNLSPDVPIWMAILGSAFAIIIVKQLFGGLGFNFMNPALGARCFLLISFAGRMTSFSYDGVTTATPLAVLKNTGDLANVNVLHMFLGNIPGTIGETSVVCILVGAAYLLIRRVIKPVIPLTYIGTFAVLIMIYALASGRGFDLTFLAAHLCGGGLMLGAFFMATDYVTSPITPAGKVVFGVILGILTFCFRIYGGSAEGVSYAIIFSNLLVPLIERWTQPKSFGEGAELAAQGDTSGTKSKMDTRSIIIATIAIMIITVIAGFALAYVYKVTKDPIAVTEQKAKEEAYKAVFGDADSFDSYSDFDADAAAKVLKDAGYNADIDEVVEAKNSDGSVLGYVVTVTSHEAYSGDLQLAMGVRTDGTTNGISFLSLSETAGLGMEADTDSFKSQFAGKKVDKFKYTKSGATVDEEIDALSGATITTNAVTNAVDAGLEYVKSINGGAADPSNALDETDASNGGDK", "protein production": "failed"},
      {"sequence": "MREEELNTEKVVAAIANPVENEVRKVWEDVVEKIEQRVAVIEQASHKLLQNKVSEEILSKAKVEAHKLAGSLGMFGSDEGSQIAQEIESLLDNGKKLKASGGKHLGQVVEALHQELENLKSGLEHHHHHH", "protein production": "not failed"},
      {"sequence": "MREHFVNEFMAVLSNKLTEDALSIVYQSLTLFVSNYEISERNTEVVPYTGYLPECYETYFVTRKIEGMSMKSLELYNLVLKDFFFKLNKEICKISTNDIRVYLYKNQQERNLSNSTLDTKRTIIHAFFEWAANEGYIGSNPCRNIKPIKYERPKRKPLTGIELEKVRNACDNLKDKALLELFYSTGCRVTEMERLDISDIDFQTKEVLLFGKGDKHRISYLNAKAEIAIRNYLDSRNDNEEALFVSDRKPYGRLKKPAIEKRIRVLGEKSGIGRRLYPHLIRHTTATDGLDRGMPVEEVQQILGHVNIATTMIYAEVSRANVKNNHRKCIV", "protein production": "failed"},
      {"sequence": "MRERLFANVRLRLSGGRQAAYISRAMSAAPDLRDPPPAHVRRLDPILVDRIAAGEVVERPASAVKELVENAIDAGARSIEVAIEGGGRRLIRVVDDGIGMGPDDLALAVERHATSKLPDGDLTRIGSLGFRGEALPSIGAVSRLTITSRTADGEGVSLTLDSGVKGPVRPAPASRGTRIEVTELFAATPARLKFLKTDRAETAAVSEILRRLAVAQPRIRFTLRTESGSPTVFPAESEPGPAALLRRLGAVLGPDFPGNAVPVDMAREGFALAGHVGLPTFHRGAASHIHFVVNGRPVRDRLLLGAVRGAYADTMSSDRHPVLALHLTCDPALVDVNVHPAKTELRFREPGLVRALIVSAIHEALRRAGARSSSTGTQAVLDALRAGAGMGSAPPMAAGVGRFAVHSGASTASALNPRPASRLFSGPSVAAPAGYRPAPRPAFTEDHPGFAETPQALFSADLAPPGADLRPEPEAVSEAETHPEAHPLGAARAQIHETYIVAQTRDGIVLVDQHAAHERLVYERLKSERAGGGVLAQGLLIPDVVEMAPEEADRLVEAAPELERLGLTLEAFGPGAVLVRSVPSALAGGSVKGLVLDVLDALAASGVEEGGPAGAGDPDPVSRRLDAILSRMSCHGSIRAGRRLKPEEMNALLREMEATPLSGSCNHGRPTFVSLGLADIERLFGRR", "protein production": "failed"},
      {"sequence": "MRERRFTSDAAHELRSPLTALKVQTEVAQLSDDDPQARKKALLQLHSGIDRATRLVDQLLTLSRLDSLDNLQDVAEIPLEDLLQSSVMDIYHTAQQAKIDVRLTLNAHSIKRTGQPLLLSLLVRNLLDNAVRYSPQGSVVDVTLNADNFIVRDNGPGVTPEALARIGERFYRPPGQTATGSGLGLSIVQRIAKLHGMNVEFGNAEQGGFEAKVSW", "protein production": "not failed"},
      {"sequence": "MRFFVFLKTLQSRSFCIFQQSFLLFFTSFFIIFVSNLCFISRGYGQNPPSLPAEPPSPQLLLPLDDLIPNDPSSAPAEPNSDSAATILEDFDAVHQSYAQRTEQRKEAEILRLLKELKFCADVEKARKISQQLQRLWSQSGSETIDLLMLWAENAINADNYGLALDYIDNALALLPTYAEGWIRRAWVHIQLSDFKLAMLDLNHALKLEPRNYIAFFELGITMEATERPKLALKAYETALEYYPQMQKVQKRIEELLDKQSPQAL", "protein production": "failed"},
      {"sequence": "MRFGRFLAVVACATLLAACASTPTPPAGELSGTPTALESGPKKDPLNTLNSTGRAGTLSRSTVVNVDQSSVDWLRGPSSDIWDRIRKGFAMPDLEGTLVDDRTQWYAARPDYMERMVGRSSRYLYHIVEELERRKMPTELALLPFVESAFNPQAESTAKAAGMWQFIPSTGKTYNLKQNMFRDERRDVLASTDAALDYLQRLYDMFGDWQLALAAYNWGEGAVSRAIARNQARGLPTDYASLTMPTETRYYVPKLQAVKNIIANPAAYGVRLPEIPDHPYFVTVTTSRDIDVALAAKLANMPLDEFKALNPSFNRPVILGAANPQILLPFENAERFQYNLNTYRGGLSSWTAVTVDSRERVESLAARLNVDVDTLREINRIPKGMRLKAGSTVMIPRTERHDQDISASLVDTAMLAVEPDVPDAKRVVVRAGRKDTVSTVARRYGVSVKQVQSWNKLSGSKLVAGQSLVLMLRPNSAAAMRAERAGDEDDTPAKAAPHGKSGGKTQAVAKSEKYDKVEKSSRSAKAEPRKRVVVEASPHSSTSKSSGKSATRESKSSPTPATKSKSSRAQ", "protein production": "failed"},
      {"sequence": "MRFKISLTTRLSLIFSAVMLTVWWLSSFILISTLNDYFDNQDRDFLTGKLQLTEEFLKTETFRNKTDIKSLSEKINDAMVGHNGLFISIKNMENEKIVELYAKNSVVPAVLLNKSGDILDYMIQTEENNTVYRSISRRVAVTPEQGKSKHVIITVATDTGYHTLLMDKLSTWLFWFNIGLVFISVFLGWLTTRIGLKPLREMTSLASSMTVHSLDQRLNPDLAPPEISETMQEFNNMFDRLEGAFRKLSDFSSDIAHELRTPVSNLMMQTQFALAKERDVSHYREILFANLEELKRLSRMTSDMLFLARSEHGLLRLDKHDVDLAAELNELRELFEPLADETGKTITVEGEGVVAGDSDMLRRAFSNLLSNAIKYSPDNTCTAIHLERDSDCVNVMITNTMSGQVPANLERLFDRFYRADSSRFYNTEGAGLGLSITRSIIHAHGGELSAEQQGREIVFKVRLLMD", "protein production": "failed"},
      {"sequence": "MRFPVLSRFLHPDPRIRRELVELLYTSLPQVMAIGVTSVTGALALTLLGDDPGYAVITFFILVTATARVFSLMRYKARAARFTDADVVRWERLYGAGATAFGLALGALSFRALQLGDAPGAWIAFGLSMSYCVGMVSRAAIRPWIILTAAAALLMPTMIAGLMRPELAYKIGAGMLVLFWLTLREASKHLSAAFTERLEAKHRLARQATHDFLTDLPNRAGFLQALSDMAGNFTVVAIDLDGFKPINDRHGHHTGDDLLRQVAERLTTCVGADGVAARFGGDEFMLLKPVTSAEQGRDEALALARKAVFDLSMPYLLADLPVCIGASAGIAISHAALAGGNTAQLLERVDRALYVAKRAGGGCAWADGDIEPSCCPRSTPLAKDSAAA", "protein production": "failed"}
    ]}
  ]
}
